Like-named read-outs stand apart in the source and are kept apart here. Each block holds one binder with its values, some of them ahead of it.
Assays:
human C3 [1] = target: T1, human C3 (human, UniProt P01024); test: BLI
human C3 [2] = target: T1, human C3; test: BLI; remark: listed apart in the source
human C5 [3] = target: T2, human C5 (human, UniProt P01031); test: BLI
human C5 R885H = human C5 R885H (human, UniProt P01031); test: BLI
human C5 [4] = target: T2, human C5; test: BLI; remark: listed apart in the source
human C5 W917S = human C5 W917S (human, UniProt P01031); test: BLI
cynomolgus C5 = target: T3, cynomolgus C5 (cynomolgus); test: BLI
T3 chain: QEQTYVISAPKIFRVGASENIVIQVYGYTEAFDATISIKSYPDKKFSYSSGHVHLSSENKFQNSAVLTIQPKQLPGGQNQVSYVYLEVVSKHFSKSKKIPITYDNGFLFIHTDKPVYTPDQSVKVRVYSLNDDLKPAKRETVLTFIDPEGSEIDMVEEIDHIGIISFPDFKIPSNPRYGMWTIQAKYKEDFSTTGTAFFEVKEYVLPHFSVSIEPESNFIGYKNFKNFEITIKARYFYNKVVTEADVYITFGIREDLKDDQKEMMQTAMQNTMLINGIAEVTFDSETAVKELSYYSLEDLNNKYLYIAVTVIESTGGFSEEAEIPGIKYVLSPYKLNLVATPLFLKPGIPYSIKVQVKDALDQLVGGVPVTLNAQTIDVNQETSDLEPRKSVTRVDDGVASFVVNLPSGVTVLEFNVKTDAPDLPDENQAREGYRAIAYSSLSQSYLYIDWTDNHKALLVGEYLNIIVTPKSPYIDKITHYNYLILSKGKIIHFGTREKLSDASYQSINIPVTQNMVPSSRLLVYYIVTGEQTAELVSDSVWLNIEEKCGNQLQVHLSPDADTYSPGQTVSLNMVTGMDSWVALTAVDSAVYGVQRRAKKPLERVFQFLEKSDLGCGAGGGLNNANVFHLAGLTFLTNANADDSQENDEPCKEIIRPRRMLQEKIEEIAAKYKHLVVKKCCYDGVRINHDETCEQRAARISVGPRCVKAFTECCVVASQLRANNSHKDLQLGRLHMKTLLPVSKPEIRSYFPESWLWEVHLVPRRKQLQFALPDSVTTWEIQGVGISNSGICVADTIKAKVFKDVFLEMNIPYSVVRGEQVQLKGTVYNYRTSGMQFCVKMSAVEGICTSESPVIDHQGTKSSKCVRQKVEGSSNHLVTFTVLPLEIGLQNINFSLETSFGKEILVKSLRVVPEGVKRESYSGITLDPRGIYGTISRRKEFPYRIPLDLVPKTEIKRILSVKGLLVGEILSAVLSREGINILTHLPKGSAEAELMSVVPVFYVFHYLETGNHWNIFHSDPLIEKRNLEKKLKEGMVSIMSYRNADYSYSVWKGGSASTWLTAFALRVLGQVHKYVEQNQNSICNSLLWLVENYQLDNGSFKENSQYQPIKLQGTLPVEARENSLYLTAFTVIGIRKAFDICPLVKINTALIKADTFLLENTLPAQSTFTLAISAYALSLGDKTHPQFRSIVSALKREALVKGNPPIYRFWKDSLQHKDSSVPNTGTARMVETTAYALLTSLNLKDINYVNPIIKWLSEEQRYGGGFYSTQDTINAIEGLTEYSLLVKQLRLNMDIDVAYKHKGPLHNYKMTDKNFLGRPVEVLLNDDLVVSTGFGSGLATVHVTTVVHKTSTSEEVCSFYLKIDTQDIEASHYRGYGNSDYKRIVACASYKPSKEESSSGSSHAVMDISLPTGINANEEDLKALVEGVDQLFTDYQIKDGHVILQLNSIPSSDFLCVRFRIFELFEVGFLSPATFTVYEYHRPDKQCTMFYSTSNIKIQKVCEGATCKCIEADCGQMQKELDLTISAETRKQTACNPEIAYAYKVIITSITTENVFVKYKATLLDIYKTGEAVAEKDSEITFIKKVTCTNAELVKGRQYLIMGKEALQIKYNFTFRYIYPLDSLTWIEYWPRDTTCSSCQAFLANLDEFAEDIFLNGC

human C5 [5] = target: T2, human C5; test: BLI, bivalent

binding result (human C3 [1]): no binding
B1: C3S7 (antibody, V domains shown)
VH: QVQLQESGGGLVQAGGSLRLSCAASGYIFTGVDMGWYRQAPGKEREFVAAISYGASTYYADSVKGRFTISRDNAKNTVYLQMNSLKPEDTAVYYCAASLSNTYLLDLFFRYWGQGTQVTVSS

binding result (human C3 [2]): no binding | Kd (human C5 [3]): 12 nM | binding result (human C5 R885H): no binding | Kd (human C5 [4]): 12 nM | binding result (human C5 W917S): no binding | binding result (cynomolgus C5): no binding
B2: C5S2.2 (antibody, V domains shown)
VH: EVQLVESGGGLVQAGGSLRLSCAASGNIFHQSDMGWYRQAPGKEREFVAAIDYGTNTYYADSVKGRFTISRDNSKNTLYLQMNSLRPEDTAVYYCAARDTSYWDHVYWGQGTLVTVSS

Kd (human C5 [5]): 0.654 nM
B3: C5S2.2-Fc (antibody, V domains shown)
VH: EVQLVESGGGLVQAGGSLRLSCAASGNIFHQSDMGWYRQAPGKEREFVAAIDYGTNTYYADSVKGRFTISRDNSKNTLYLQMNSLRPEDTAVYYCAARDTSYWDHVYWGQGTLVTVSS

From patent US20260347449 (published 2026)
